Assay results as given in IntAct's records for PubMed 29892012.

B1: Glutaredoxin-3 (Homo sapiens), O76003 (parent)
chain: MAAGAAEAAVAAVEEVGSAGQFEELLRLKAKSLLVVHFWAPWAPQCAQMNEVMAELAKELPQVSFVKLEAEGVPEVSEKYEISSVPTFLFFKNSQKIDRLDGAHAPELTKKVQRHASSGSFLPSANEHLKEDLNLRLKKLTHAAPCMLFMKGTPQEPRCGFSKQMVEILHKHNIQFSSFDIFSDEEVRQGLKAYSSWPTYPQLYVSGELIGGLDIIKELEASEELDTICPKAPKLEERLKVLTNKASVMLFMKGNKQEAKCGFSKQILEILNSTGVEYETFDILEDEEVRQGLKAYSNWPTYPQLYVKGELVGGLDIVKELKENGELLPILRGEN
partner: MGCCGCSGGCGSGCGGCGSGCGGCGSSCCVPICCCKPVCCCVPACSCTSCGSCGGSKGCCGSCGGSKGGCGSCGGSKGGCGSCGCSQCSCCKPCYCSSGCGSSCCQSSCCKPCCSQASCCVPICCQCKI
B2: E3 ubiquitin-protein ligase RNF31 (Homo sapiens), Q96EP0 (parent)
chain: MPGEEEERAFLVAREELASALRRDSGQAFSLEQLRPLLASSLPLAARYLQLDAARLVRCNAHGEPRNYLNTLSTALNILEKYGRNLLSPQRPRYWRGVKFNNPVFRSTVDAVQGGRDVLRLYGYTEEQPDGLSFPEGQEEPDEHQVATVTLEVLLLRTELSLLLQNTHPRQQALEQLLEDKVEDDMLQLSEFDPLLREIAPGPLTTPSVPGSTPGPCFLCGSAPGTLHCPSCKQALCPACDHLFHGHPSRAHHLRQTLPGVLQGTHLSPSLPASAQPRPQSTSLLALGDSSLSSPNPASAHLPWHCAACAMLNEPWAVLCVACDRPRGCKGLGLGTEGPQGTGGLEPDLARGRWACQSCTFENEAAAVLCSICERPRLAQPPSLVVDSRDAGICLQPLQQGDALLASAQSQVWYCIHCTFCNSSPGWVCVMCNRTSSPIPAQHAPRPYASSLEKGPPKPGPPRRLSAPLPSSCGDPEKQRQDKMREEGLQLVSMIREGEAAGACPEEIFSALQYSGTEVPLQWLRSELPYVLEMVAELAGQQDPGLGAFSCQEARRAWLDRHGNLDEAVEECVRTRRRKVQELQSLGFGPEEGSLQALFQHGGDVSRALTELQRQRLEPFRQRLWDSGPEPTPSWDGPDKQSLVRRLLAVYALPSWGRAELALSLLQETPRNYELGDVVEAVRHSQDRAFLRRLLAQECAVCGWALPHNRMQALTSCECTICPDCFRQHFTIALKEKHITDMVCPACGRPDLTDDTQLLSYFSTLDIQLRESLEPDAYALFHKKLTEGVLMRDPKFLWCAQCSFGFIYEREQLEATCPQCHQTFCVRCKRQWEEQHRGRSCEDFQNWKRMNDPEYQAQGLAMYLQENGIDCPKCKFSYALARGGCMHFHCTQCRHQFCSGCYNAFYAKNKCPEPNCRVKKSLHGHHPRDCLFYLRDWTALRLQKLLQDNNVMFNTEPPAGARAVPGGGCRVIEQKEVPNGLRDEACGKETPAGYAGLCQAHYKEYLVSLINAHSLDPATLYEVEELETATERYLHVRPQPLAGEDPPAYQARLLQKLTEEVPLGQSIPRRRK
partner: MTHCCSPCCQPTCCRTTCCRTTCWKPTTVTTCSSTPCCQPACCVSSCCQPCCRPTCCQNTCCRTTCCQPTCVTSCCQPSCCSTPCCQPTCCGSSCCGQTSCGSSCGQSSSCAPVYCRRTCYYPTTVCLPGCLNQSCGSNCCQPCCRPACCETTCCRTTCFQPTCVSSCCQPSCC
B3: Liprin-alpha-1 (Homo sapiens), Q13136 (parent)
chain: MMCEVMPTISEAEGPPGGGGGHGSGSPSQPDADSHFEQLMVSMLEERDRLLDTLRETQETLALTQGKLHEVGHERDSLQRQLNTALPQEFAALTKELNVCREQLLEREEEIAELKAERNNTRLLLEHLECLVSRHERSLRMTVVKRQAQSPAGVSSEVEVLKALKSLFEHHKALDEKVRERLRVALERCSLLEEELGATHKELMILKEQNNQKKTLTDGVLDINHEQENTPSTSGKRSSDGSLSHEEDLAKVIELQEIISKQSREQSQMKERLASLSSHVTELEEDLDTARKDLIKSEEMNTKLQRDVREAMAQKEDMEERITTLEKRYLAAQREATSVHDLNDKLENEIANKDSMHRQTEDKNRQLQERLELAEQKLQQTLRKAETLPEVEAELAQRVAALSKAEERHGNIEERLRQMEAQLEEKNQELQRARQREKMNEEHNKRLSDTVDKLLSESNERLQLHLKERMAALEDKNSLLREVESAKKQLEETQHDKDQLVLNIEALRAELDHMRLRGASLHHGRPHLGSVPDFRFPMADGHTDSYSTSAVLRRPQKGRLAALRDEPSKVQTLNEQDWERAQQASVLANVAQAFESDADVSDGEDDRDTLLSSVDLLSPSGQADAHTLAMMLQEQLDAINKEIRLIQEEKENTEQRAEEIESRVGSGSLDNLGRFRSMSSIPPYPASSLASSSPPGSGRSTPRRIPHSPAREVDRLGVMTLLPPSREEVRDDKTTIKCETSPPSSPRALRLDRLHKGALHTVSHEDIRDIRNSTGSQDGPVSNPSSSNSSQDSLHKAPKKKGIKSSIGRLFGKKEKGRPGQTGKEALGQAGVSETDNSSQDALGLSKLGGQAEKNRKLQKKHELLEEARRQGLPFAQWDGPTVVVWLELWVGMPAWYVAACRANVKSGAIMSALSDTEIQREIGISNPLHRLKLRLAIQEIMSLTSPSAPPTSRTTLAYGDMNHEWIGNEWLPSLGLPQYRSYFMECLVDARMLDHLTKKDLRGQLKMVDSFHRNSFQCGIMCLRRLNYDRKELERKREESQSEIKDVLVWSNDRVIRWILSIGLKEYANNLIESGVHGALLALDETFDFSALALLLQIPTQNTQARAVLEREFNNLLVMGTDRRFDEDDDKSFRRAPSWRKKFRPKDIRGLAAGSAETLPANFRVTSSMSSPSMQPKKMQMDGNVSGTQRLDSATVRTYSC
partner: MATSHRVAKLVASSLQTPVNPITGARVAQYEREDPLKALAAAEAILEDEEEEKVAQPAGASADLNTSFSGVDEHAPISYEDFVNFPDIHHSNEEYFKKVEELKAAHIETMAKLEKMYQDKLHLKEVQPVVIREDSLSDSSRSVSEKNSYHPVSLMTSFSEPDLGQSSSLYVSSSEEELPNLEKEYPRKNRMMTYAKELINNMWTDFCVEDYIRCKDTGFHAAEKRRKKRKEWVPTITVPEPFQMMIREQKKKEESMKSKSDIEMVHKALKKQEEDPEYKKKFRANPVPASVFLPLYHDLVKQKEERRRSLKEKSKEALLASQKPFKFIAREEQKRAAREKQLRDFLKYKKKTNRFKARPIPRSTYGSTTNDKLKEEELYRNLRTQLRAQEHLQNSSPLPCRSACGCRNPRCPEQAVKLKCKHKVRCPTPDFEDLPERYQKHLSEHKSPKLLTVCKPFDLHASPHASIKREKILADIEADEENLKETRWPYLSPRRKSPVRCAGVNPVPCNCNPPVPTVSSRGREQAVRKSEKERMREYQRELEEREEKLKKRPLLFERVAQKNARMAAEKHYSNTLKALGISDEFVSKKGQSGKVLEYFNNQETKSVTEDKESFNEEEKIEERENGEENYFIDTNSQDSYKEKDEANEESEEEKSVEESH
B4: Ligand of Numb protein X 2 (Homo sapiens), Q8N448 (parent)
chain: MGTTSDEMVSVEQTSSSSLNPLCFECGQQHWTRENHLYNYQNEVDDDLVCHICLQPLLQPLDTPCGHTFCYKCLRNFLQEKDFCPLDRKRLHFKLCKKSSILVHKLLDKLLVLCPFSSVCKDVMQRCDLEAHLKNRCPGASHRRVALERRKTSRTQAEIENENGPTLLDPAGTLSPEADCLGTGAVPVERHLTSASLSTWSEEPGLDNPAFEESAGADTTQQPLSLPEGEITTIEIHRSNPYIQLGISIVGGNETPLINIVIQEVYRDGVIARDGRLLAGDQILQVNNYNISNVSHNYARAVLSQPCNTLHLTVLRERRFGNRAHNHSDSNSPREEIFQVALHKRDSGEQLGIKLVRRTDEPGVFILDLLEGGLAAQDGRLSSNDRVLAINGHDLKYGTPELAAQIIQASGERVNLTIARPGKPQPGNTIREAGNHSSSSQHHTPPPYYSRPSSHKDLTQCVTCQEKHITVKKEPHESLGMTVAGGRGSKSGELPIFVTSVPPHGCLARDGRIKRGDVLLNINGIDLTNLSHSEAVAMLKASAASPAVALKALEVQIVEEATQNAEEQPSTFSENEYDASWSPSWVMWLGLPSTLHSCHDIVLRRSYLGSWGFSIVGGYEENHTNQPFFIKTIVLGTPAYYDGRLKCGDMIVAVNGLSTVGMSHSALVPMLKEQRNKVTLTVICWPGSLV
partner: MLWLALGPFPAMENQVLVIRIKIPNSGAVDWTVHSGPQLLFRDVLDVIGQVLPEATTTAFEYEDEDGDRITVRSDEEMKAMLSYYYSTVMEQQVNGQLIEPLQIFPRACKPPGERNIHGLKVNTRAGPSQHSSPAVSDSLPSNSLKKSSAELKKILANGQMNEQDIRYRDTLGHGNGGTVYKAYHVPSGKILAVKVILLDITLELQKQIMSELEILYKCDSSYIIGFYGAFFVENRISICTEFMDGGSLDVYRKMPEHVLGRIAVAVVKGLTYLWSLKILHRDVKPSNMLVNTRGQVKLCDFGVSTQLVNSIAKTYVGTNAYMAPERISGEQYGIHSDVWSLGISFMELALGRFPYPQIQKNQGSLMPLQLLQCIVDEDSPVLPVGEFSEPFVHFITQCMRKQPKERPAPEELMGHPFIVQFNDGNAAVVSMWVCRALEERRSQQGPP
B5: Coiled-coil domain-containing protein 120 (Homo sapiens), Q96HB5-4 (parent)
chain: MRREPRYQGQVGPDIHTDSERTLSSHQPRPLDSTKMEVKGQLISSPTFNAPAALFGEAAPQVKSERLRGLLDRQRTLQEALSLKLQELRKVCLQEAELTGQLPPECPLEPGERPQLVRRRPPTARAYPPPHPNQAHHSLCPAEELALEALEREVSVQQQIAAAARRLALAPDLSTEQRRRRRQVQADALRRLHELEEQLRDVRARLGLPVLPLPQPLPLSTGSVITTQGVCLGMRLAQLSQEDVVLHSESSSLSESGASHDNEEPHGCFSLAERPSPPKAWDQLRAVSGGSPERRTPWKPPPSDLYGDLKSRRNSVASPTSPTRSLPRSASSFEGRSVPATPVLTRGAGPQLCKPEGLHSRQWSGSQDSQMGFPRADPASDRASLFVARTRRSNSSEALLVDRAAGGGAGSPPAPLAPSASGPPVCKSSEVLYERPQPTPAFSSRTAGPPDPPRAARPSSAAPASRGAPRLPPVCGDFLLDYSLDRGLPRSGGGTGWGELPPAAEVPGPLSRRDGLLTMLPGPPPVYAADSNSPLLRTKDPHTRATRTKPCGLPPEAAEGPEVHPNPLLWMPPPTRIPSAGERSGHKNLALEGLRDWYIRNSGLAAGPQRRPVLPSVGPPHPPFLHARCYEVGQALYGAPSQAPLPHSRSFTAPPVSGRYYADFLYPPELSARLSDLTLEGEQSSSSDTQTPGTLV
partner: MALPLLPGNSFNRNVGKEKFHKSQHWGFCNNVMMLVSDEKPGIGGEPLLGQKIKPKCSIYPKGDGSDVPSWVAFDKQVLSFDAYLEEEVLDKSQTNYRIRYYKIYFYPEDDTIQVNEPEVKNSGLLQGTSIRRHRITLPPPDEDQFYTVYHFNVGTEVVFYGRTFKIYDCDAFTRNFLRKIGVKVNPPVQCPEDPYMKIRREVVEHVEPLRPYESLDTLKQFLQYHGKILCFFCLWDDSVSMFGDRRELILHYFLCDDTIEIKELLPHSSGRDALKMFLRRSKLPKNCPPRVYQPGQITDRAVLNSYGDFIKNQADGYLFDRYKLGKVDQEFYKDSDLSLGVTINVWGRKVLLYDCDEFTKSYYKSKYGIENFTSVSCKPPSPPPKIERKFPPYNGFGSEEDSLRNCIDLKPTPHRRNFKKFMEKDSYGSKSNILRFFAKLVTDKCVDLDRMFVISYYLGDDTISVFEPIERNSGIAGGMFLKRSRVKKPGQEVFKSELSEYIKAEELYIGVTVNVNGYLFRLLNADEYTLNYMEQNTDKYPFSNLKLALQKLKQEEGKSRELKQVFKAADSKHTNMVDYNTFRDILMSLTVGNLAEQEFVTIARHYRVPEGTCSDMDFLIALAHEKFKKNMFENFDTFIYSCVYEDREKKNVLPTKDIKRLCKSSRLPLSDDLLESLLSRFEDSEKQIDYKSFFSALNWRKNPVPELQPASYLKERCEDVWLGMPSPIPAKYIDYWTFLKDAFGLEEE

Variants of: B1
Details: with kra56_human KRTAP5-6, Q6L8G9

Variant | effect of a mutation on the interaction
P145A | with no effect

Variants of: B2
Details: with kra92_human KRTAP9-2, Q9BYQ4

Variant | effect of a mutation on the interaction
R646W | with no effect

Variants of: B3
Details: with FAM161A

Variant | effect of a mutation on the interaction
P389L | with no effect

Variants of: B3
Details: with FAM161A
Remark: another data set of the same source

Variant | effect of a mutation on the interaction
L330F | disrupting interaction strength

Variants of: B4
Details: with mp2k5_human MAP2K5, Q13163

Variant | effect of a mutation on the interaction
P669A | with no effect

Variants of: B5
Details: with efhc2_human EFHC2, Q5JST6

Variant | effect of a mutation on the interaction
R346W | with no effect
